{"source": "patent EP1988165A1", "about": "(THE UNIVERSITY OF NORTH CAROLINA AT CHAPEL HILL, dated 2008)", "binders": {"B1": {"name": "ScROC1 fused in-frame with the Gal4 DNA binding domain (pGBT8-ScROC1) (other, yeast;Saccharomyces cerevisiae, UniProt P04386 1-147, looked up)", "chain": "MKLLSSIEQACDICRLKKLKCSKEKPKCAKCLKNNWECRYSPKTKRSPLTRAHLTEVESRLERLEQLFLLIFPREDLDMILKMDSLQDIKALLTGLFVQDNVNKDAVTDRLASVETDMPLTLRQHRISATSSSEESSNKGQRQLTVSMSNEVDRMDVDEDESQNIAQSSNQSAPVETKKKRFEIKKWTAVAFWSWDIAVDNCAICRNHIMEPCIECQPKAMTDTDNECVAAWGVCNHAFHLHCINKWIKTRDACPLDNQPWQLARCGR"}, "B2": {"name": "ScAPC11 fused in-frame with the GAL4 activation domain (pGAD) (other, Saccharomyces cerevisiae, UniProt Q12157 1-165, looked up, not shown: large carriers)", "chain": "MKVKINEVHSVFAWSWHIPSTSDEDAANNDPIGNDEDEDVCGICRASYNGTCPSCKFPGDQCPLVIGLCHHNFHDHCIYRWLDTPTSKGLCPMCRQTFQLQKGLAINDAHVQKFVEIVSRRREEMIEEGVAEEFVDFDEPIRQNTDNPIGRQQVDTILDEDFLLR", "notes": "also called yeast APC11"}, "B3": {"name": "human CUL2, endogenous in HeLa cells (other, UniProt Q13617 1-745, looked up)", "chain": "MSLKPRVVDFDETWNKLLTTIKAVVMLEYVERATWNDRFSDIYALCVAYPEPLGERLYTETKIFLENHVRHLHKRVLESEEQVLVMYHRYWEEYSKGADYMDCLYRYLNTQFIKKNKLTEADLQYGYGGVDMNEPLMEIGELALDMWRKLMVEPLQAILIRMLLREIKNDRGGEDPNQKVIHGVINSFVHVEQYKKKFPLKFYQEIFESPFLTETGEYYKQEASNLLQESNCSQYMEKVLGRLKDEEIRCRKYLHPSSYTKVIHECQQRMVADHLQFLHAECHNIIRQEKKNDMANMYVLLRAVSTGLPHMIQELQNHIHDEGLRATSNLTQENMPTLFVESVLEVHGKFVQLINTVLNGDQHFMSALDKALTSVVNYREPKSVCKAPELLAKYCDNLLKKSAKGMTENEVEDRLTSFITVFKYIDDKDVFQKFYARMLAKRLIHGLSMSMDSEEAMINKLKQACGYEFTSKLHRMYTDMSVSADLNNKFNNFIKNQDTVIDLGISFQIYVLQAGAWPLTQAPSSTFAIPQELEKSVQMFELFYSQHFSGRKLTWLHYLCTGEVKMNYLGKPYVAMVTTYQMAVLLAFNNSETVSYKELQDSTQMNEKELTKTIKSLLDVKMINHDSEKEDIDAESSFSLNMNFSSKRTKFKITTSMQKDTPQEMEQTRSAVDEDRKMYLQAAIVRIMKARKVLRHNALIQEVISQSRARFNPSISMIKKCIEVLIDKQYIERSQASADEYSYVA", "notes": "also called cullin 2"}, "B4": {"name": "full-length mouse cullin 4A fused in frame with the DNA-binding domain of Gal4 (other, yeast;mouse, UniProt P04386 1-147, looked up)", "chain": "MKLLSSIEQACDICRLKKLKCSKEKPKCAKCLKNNWECRYSPKTKRSPLTRAHLTEVESRLERLEQLFLLIFPREDLDMILKMDSLQDIKALLTGLFVQDNVNKDAVTDRLASVETDMPLTLRQHRISATSSSEESSNKGQRQLTVSMADEGPRKGSVSALMGRTNGLTKPAALAGGPAKPGGTGGSRKLVIKNFRDRPRLPDNYTQDTWRKLHEAVKAIQSSTSIRYNLEELYQAVENLCSHKVSPTLYKQLRQVCEDHVQAQILPFREDSLDSVLFLKKINTCWQDHCRQMIMIRSIFLFLDRTYVLQNSMLPSIWDMGLELFRNHIISDRMVQSKTIDGILLLIGRERSGEAVDRSLLRSLLSMLSDLQVYKDSFELKFLEETNCLYAAEGQRLMQDREVPEYLNHVSKRLEEEADRVITYLDHSTQKPLIACVEKQLLGEHLTAILQKGLEHLLDENRVPDLTQMYQLFSRVKGGQHALLQHWSEYIKTFGTTIVINPEKDKDMVQDLLDFKDKVDHVVEVCFQRNERFINLMKESFETFINKRPNKPAELIAKHVDSKLRAGNKEATDEELERILDKIMILFRFIHGKDVFEAFYKKDLAKRLLVGKSASVDAEKSMLSKLKHECGAAFTSKLEGMFKDMELSKDIMVHFKQHMQNQSAPGPIDLTVNILTMGYWPTYTPMEVHLPPEMVRLQEVFKTFYLGKHSGRKLQWQTTLGHAVLKADFKEGKKEFQVSLFQTLVLLMFNEGDGFSFEEIKMATGIEDSELRRTLQSLACGKARVLIKSPKGKEVEDGDKFIFNADFKHKLFRIKINQIQMKETVEEQVSTTERVFQDRQYQIDAAIVRIMKMRKTLGHNLLVSELYNQLKFPVKPGDLKKRIESLIDRDYMERDKDSPNQYHYVA", "notes": "Yeast two-hybrid bait, also used for the library screen; also called mouse CUL4A; CUL4A"}, "B5": {"name": "HA tagged human ROC2 (other, not shown: small tags and cut ends)", "chain": "ADVEDGEETCALASHSGSSGSTSGGDKMFSLKKWNPVAMWSWDVECDTCAICRVQVMDACLRCQAENKQEDCVVVWGECNHSFHNCCMSLWVKQNNRCPLCQQDWVVQRIGK", "notes": "Transfected protein migrates as a doublet; also called HA-ROC2"}, "B6": {"name": "myc-epitope tagged mouse CUL4A (other, UniProt Q3TCH7 1-759, looked up, not shown: small tags and cut ends)", "chain": "MADEGPRKGSVSALMGRTNGLTKPAALAGGPAKPGGTGGSRKLVIKNFRDRPRLPDNYTQDTWRKLHEAVKAIQSSTSIRYNLEELYQAVENLCSHKVSPTLYKQLRQVCEDHVQAQILPFREDSLDSVLFLKKINTCWQDHCRQMIMIRSIFLFLDRTYVLQNSMLPSIWDMGLELFRNHIISDRMVQSKTIDGILLLIGRERSGEAVDRSLLRSLLSMLSDLQVYKDSFELKFLEETNCLYAAEGQRLMQDREVPEYLNHVSKRLEEEADRVITYLDHSTQKPLIACVEKQLLGEHLTAILQKGLEHLLDENRVPDLTQMYQLFSRVKGGQHALLQHWSEYIKTFGTTIVINPEKDKDMVQDLLDFKDKVDHVVEVCFQRNERFINLMKESFETFINKRPNKPAELIAKHVDSKLRAGNKEATDEELERILDKIMILFRFIHGKDVFEAFYKKDLAKRLLVGKSASVDAEKSMLSKLKHECGAAFTSKLEGMFKDMELSKDIMVHFKQHMQNQSAPGPIDLTVNILTMGYWPTYTPMEVHLPPEMVRLQEVFKTFYLGKHSGRKLQWQTTLGHAVLKADFKEGKKEFQVSLFQTLVLLMFNEGDGFSFEEIKMATGIEDSELRRTLQSLACGKARVLIKSPKGKEVEDGDKFIFNADFKHKLFRIKINQIQMKETVEEQVSTTERVFQDRQYQIDAAIVRIMKMRKTLGHNLLVSELYNQLKFPVKPGDLKKRIESLIDRDYMERDKDSPNQYHYVA", "notes": "also called myc-mCUL4A; cullin 4A"}, "B7": {"name": "full length human ROC2 fused in-frame with the yeast Gal4 DNA activation domain (other, not shown: large carriers)", "chain": "MFSLKKWNPVAMWSWDVECDTCAICRVQVMDACLRCQAENKQEDCVVVWGECNHSFHNCCMSLWVKQNNRCPLCQQDWVVQRIGK", "notes": "Yeast two-hybrid prey"}, "B8": {"name": "ScROC1 fused in-frame with the GAL4 activation domain (pGAD-ScROC1) (other, Saccharomyces cerevisiae, UniProt Q08273 1-121, looked up, not shown: large carriers)", "chain": "MSNEVDRMDVDEDESQNIAQSSNQSAPVETKKKRFEIKKWTAVAFWSWDIAVDNCAICRNHIMEPCIECQPKAMTDTDNECVAAWGVCNHAFHLHCINKWIKTRDACPLDNQPWQLARCGR", "notes": "also called yeast ROC1; ROC1p"}}, "key": {"[1]": {"biological_target": "T1, ScAPC2 fused in-frame with the GAL4 activation domain (yeast; Saccharomyces cerevisiae, UniProt Q12440 1-853)", "T1 construct": "also called yeast APC2", "T1 sequence (looked up)": "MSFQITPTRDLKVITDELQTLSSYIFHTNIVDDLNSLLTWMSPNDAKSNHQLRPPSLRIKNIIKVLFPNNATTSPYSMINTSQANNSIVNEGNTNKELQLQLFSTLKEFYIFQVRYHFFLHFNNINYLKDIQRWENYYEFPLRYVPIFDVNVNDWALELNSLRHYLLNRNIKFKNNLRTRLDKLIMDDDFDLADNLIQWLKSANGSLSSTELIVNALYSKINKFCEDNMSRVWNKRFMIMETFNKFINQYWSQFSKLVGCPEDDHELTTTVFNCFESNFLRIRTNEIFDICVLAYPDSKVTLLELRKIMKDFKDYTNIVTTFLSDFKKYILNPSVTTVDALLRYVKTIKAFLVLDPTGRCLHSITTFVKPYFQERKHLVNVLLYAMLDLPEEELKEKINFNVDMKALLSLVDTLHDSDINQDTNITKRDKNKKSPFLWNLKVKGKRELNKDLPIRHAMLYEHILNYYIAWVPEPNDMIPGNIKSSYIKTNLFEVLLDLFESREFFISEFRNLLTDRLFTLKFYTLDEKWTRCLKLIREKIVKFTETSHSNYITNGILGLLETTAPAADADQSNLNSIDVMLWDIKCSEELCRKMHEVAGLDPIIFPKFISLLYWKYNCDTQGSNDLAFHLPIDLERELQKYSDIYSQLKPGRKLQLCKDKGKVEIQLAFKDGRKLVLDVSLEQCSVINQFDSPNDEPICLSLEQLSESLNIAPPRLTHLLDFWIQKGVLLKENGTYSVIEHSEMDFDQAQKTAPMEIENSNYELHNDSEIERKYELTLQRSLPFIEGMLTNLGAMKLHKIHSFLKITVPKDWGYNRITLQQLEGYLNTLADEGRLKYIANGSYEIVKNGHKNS", "assay": "yeast two-hybrid (FIG. 5D)"}, "[2]": {"biological_target": "T2, CDC53 fused in-frame with the Gal4 DNA binding domain (pGBT8-CDC53) (yeast; Saccharomyces cerevisiae, UniProt P04386 1-147; Q12018 1-815)", "assay": "yeast two-hybrid, histidine reporter (FIG. 5D)"}, "[3]": {"biological_target": "T3, CUL-B (ORF YGR003w) fused in-frame with the Gal4 DNA binding domain (pGBT8) (yeast; Saccharomyces cerevisiae, UniProt P04386 1-147; P53202 1-744)", "assay": "yeast two-hybrid, histidine reporter (FIG. 5D)"}, "[4]": {"biological_target": "T4, CUL-C (ORF YJL047c) fused in-frame with the Gal4 DNA binding domain (pGBT8) (yeast; Saccharomyces cerevisiae, UniProt P04386 1-147; P47050 1-842)", "assay": "yeast two-hybrid, histidine reporter (FIG. 5D)"}, "[5]": {"biological_target": "human ROC1, untagged (endogenous in HeLa and Saos-2 cells, or in vitro translated) (human, UniProt P62877 1-108)", "sequence (P62877 whole entry)": "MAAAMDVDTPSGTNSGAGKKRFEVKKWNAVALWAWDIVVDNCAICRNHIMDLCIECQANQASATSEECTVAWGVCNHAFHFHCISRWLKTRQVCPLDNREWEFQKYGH", "assay": "immunopurification of ROC1 immunocomplexes from HeLa cells and protein microsequencing"}, "[6]": {"biological_target": "T5, human ROC1 fused in-frame with the DNA activation domain of Gal4 (pGAD-ROC1) (yeast; human, UniProt P62877 1-108)", "T5 construct": "Yeast two-hybrid prey; also called regulator of cullins", "T5 sequence (P62877 whole entry, the tested form may be a part)": "as the sequence (P62877 whole entry) above", "assay": "yeast two-hybrid; library screen with mouse cullin 4A as bait and FIG. 1A"}, "myc-epitope tagged APC2": {"biological_target": "myc-epitope tagged APC2 (mouse, UniProt Q8BZQ7 15-837, limits assumed)", "sequence (Q8BZQ7 15-837 limits assumed)": "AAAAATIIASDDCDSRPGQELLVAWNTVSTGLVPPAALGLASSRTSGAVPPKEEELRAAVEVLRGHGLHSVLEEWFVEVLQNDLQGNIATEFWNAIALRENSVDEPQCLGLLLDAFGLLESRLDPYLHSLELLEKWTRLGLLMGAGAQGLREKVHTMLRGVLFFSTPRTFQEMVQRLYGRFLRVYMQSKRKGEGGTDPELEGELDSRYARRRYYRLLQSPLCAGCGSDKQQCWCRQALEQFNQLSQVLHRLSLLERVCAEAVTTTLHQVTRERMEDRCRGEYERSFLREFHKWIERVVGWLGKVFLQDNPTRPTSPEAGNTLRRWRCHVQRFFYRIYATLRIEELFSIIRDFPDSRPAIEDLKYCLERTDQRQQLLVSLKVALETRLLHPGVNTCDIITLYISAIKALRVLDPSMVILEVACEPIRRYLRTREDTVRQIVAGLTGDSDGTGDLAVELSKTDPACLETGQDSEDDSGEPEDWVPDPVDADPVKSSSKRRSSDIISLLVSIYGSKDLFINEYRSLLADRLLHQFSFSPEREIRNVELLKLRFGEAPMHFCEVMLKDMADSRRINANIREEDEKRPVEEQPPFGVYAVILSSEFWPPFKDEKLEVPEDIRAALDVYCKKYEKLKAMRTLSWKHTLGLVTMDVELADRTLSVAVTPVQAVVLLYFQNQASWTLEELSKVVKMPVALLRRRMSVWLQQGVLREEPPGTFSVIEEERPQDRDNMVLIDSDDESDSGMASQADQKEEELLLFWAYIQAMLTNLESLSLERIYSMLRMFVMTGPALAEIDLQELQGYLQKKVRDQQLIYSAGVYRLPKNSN", "assay": "co-immunoprecipitation from transfected HeLa cells"}, "[7]": {"biological_target": "T6, HA-epitope tagged human ROC1 (human, UniProt P62877 1-108)", "T6 construct": "Expressed by transfection in mammalian cells (Saos-2, HeLa, 293T); also called HA-ROC1", "T6 sequence (P62877 whole entry)": "as the sequence (P62877 whole entry) above", "assay": "co-immunoprecipitation with anti-HA from [35S]-methionine labeled transfected cells (FIG. 3A)"}, "[8]": {"biological_target": "T7, mouse APC2 fused to the Gal4 DNA binding domain (yeast; mouse, UniProt P04386 1-147; Q8BZQ7 15-837, limits assumed)", "T7 construct": "also called GAL4BD-APC2", "assay": "yeast two-hybrid, -LWH medium with 5 mM 3-AT (FIG. 4E)"}, "[9]": {"biological_target": "T2, CDC53 fused in-frame with the Gal4 DNA …", "assay": "yeast two-hybrid (FIG. 5D)"}, "[10]": {"biological_target": "T3, CUL-B (ORF YGR003w) fused in-frame with …", "assay": "yeast two-hybrid (FIG. 5D)"}, "[11]": {"biological_target": "T4, CUL-C (ORF YJL047c) fused in-frame with …", "assay": "yeast two-hybrid (FIG. 5D)"}}}
{"binder": "B1", "values": [{"measurement": "binding result", "setting": "[1]", "result": "binds"}]}
{"binder": "B2", "values": [{"measurement": "binding result", "setting": "[2]", "result": "no binding"}, {"measurement": "binding result", "setting": "[3]", "result": "no binding"}, {"measurement": "binding result", "setting": "[4]", "result": "binds"}]}
{"binder": "B3", "values": [{"measurement": "binding result", "setting": "[5]", "result": "binds"}]}
{"binder": "B4", "values": [{"measurement": "binding result", "setting": "[6]", "result": "binds"}]}
{"binder": "B5", "values": [{"measurement": "binding result", "setting": "myc-epitope tagged APC2", "result": "no binding"}]}
{"binder": "B6", "values": [{"measurement": "binding result", "setting": "[7]", "result": "binds"}]}
{"binder": "B7", "values": [{"measurement": "binding result", "setting": "[8]", "result": "no binding"}]}
{"binder": "B8", "values": [{"measurement": "binding result", "setting": "[9]", "result": "binds"}, {"measurement": "binding result", "setting": "[10]", "result": "binds"}, {"measurement": "binding result", "setting": "[11]", "result": "binds"}]}
